Assay results: the DeepSol protein solubility set

assay: soluble on expression in E. coli; label from the status in PepcDB or PDB records

Row | Sequence | soluble on expression in E. coli
1 | MGSDKIHHHHHHMEEYFNGLLKEVDQRMATTAPGMDGKEVIGVCREMVSYLKGKNRELKEYALAHPFAGDAKEILYFKYYKPALTGRLLYYYRVYQIESGCPACLRVAEPYYRKAMERAERMMERYLPFYQYYHSGATYRDSYYFLRAKGELSPESGSFVLDEEAEFSTGYDILAARLISVEMLLVHLSRRMERAAQGTETEAVPEKEHRWTNTKVAAILLVYGIHVTGSVDEGNAEIGELAALFEKHFHVDLGNVYHAFGRLRGQQNPTAFLDEMKERLLKKMRDMDSR | not soluble
2 | MGSDKIHHHHHHMEFLRNTWYAAGWSQDLAAGAMLGRTMLNEQLVLFRADDGTVSALSDICPHRFAPLHLGKIVDGCRIQCAYHALEFDGTGACVKNPHGKQKIPAAAKLQAYPVVEKHSLIWVWMGEQAAADPSVIPDFSMLDPDSGFQVSRRDWLHMDASYDLVVDNLMDLSHTAFLHDGILGSKYTIKADTSLEQTGETVKVTRLMPNVPVPGFFDLMFNRDGGIVDYWTEIRWNLPGCLMNNTGVTLPGAPRSEGTGVYGMHFLTPETDVSCWYHFAAVRQNPRTWGEPIDTEIKEKISDLRRYAFEEQDQWIIKAQQQTILRAKGNLQPVSLETDIGIERYKRILKAALVAERSGSTMAA | not soluble
3 | MGSDKIHHHHHHMEFMKQLGSCCQYCAYPLSDDTYLVCGQCVRKRPSFDSAYIAYRFEEPLRSLIHQFKYHNGLYLASFLKQLLLNALPKNALKPDCLIPVPMHPKRLKRRGFNQAGVLTRLLARQLNIPYDLYYCQKIINTASQANLDGEQRRKNLRHAFYVSAVTYEHVMIVDDLLTTGSTANEMAHTLKNAGVKRVDICCCARAVTKN | not soluble
4 | MGSDKIHHHHHHMEHISQLTAEIRDKAAYPDILVISRIFLPKEAVIGEYMYNRCLQDPERVIVLAASCSGDKVFDEGQQFPVYRWFYPRYWRSGFVGNILKPFVNIVCSFVLAIKLYFRYHYRYIEWGHGYDFPSLLLLSYLLPIRFFIYLHGNDFLCTLHNPVLRSLFKLTLKRAEGIVCNSSYTQDYLRTALRLDTPTYVINPVIRPEKFGNNVGSPSSLDDLRVRVRQAYNIPDSAIVILSIGRLVKHKAFDQVIDNIPLLLTFGVDVHYIICGEGPSESELKSLVHRLRVDKCVHFAGYVAERELAGYYAACDIFAMLTLLDSKPNNMEGFGMVYLEASYFGKPIIAPRLGGVLDTVQHEENGILVNPNSGYEVFQAFNRLCKDQQLREQLGRKGKELAKRRTLHRSLYKSEGKNPIL | not soluble
5 | MGSDKIHHHHHHMEHLHRKQITNTFTETFPGDLSMNNTTRQTPGVLYCSVLPTPVHHPQLLAWSADVAEMLGLESPVPEDVLILGGNTVNPTMKPYASCYAGHQFGNWAGQLGDGRAISLGFCSGKDSMEYELQLKGAGPTPYSRNSDGRAVLRSSLREYLMSEAMHYLGVPTTRALSLVSTGDAVLRDMFYNGHAAYEPGAVVLRVAPSFIRFGNFEILAERNNRDLSQQLCDWVITRYYPEIRGEDRVVQLFQAVAERTADMVVQWLRVGFVHGVMNTDNMSILGVTIDYGPYSFVDEYDARFTPNTTDLPGRRYAFGNQAAVAYWNLGRLANALAFLVPETDKLVAVLKNYQDVYETKYYTMMANKLGFDALREDDRLLIDSFEEMLRTVKPDMTMFYQLLIDLPADPGTAADVKQFFQSCFYTEADEALLHTCIAAYSKRIKTNTCSKEVSAEKMRAANPRFVLRNYILHEAIEKLEKGDDALLKKLEEYIKQPYSKNADEYFIKRPDWAAQKAGCSMLSCSS | not soluble
6 | MGSDKIHHHHHHMEKFKGALVVGALRLFALLPWRAVQGVGAGIGWLMWKLPNRSREVVRINLSKCFPELSETELEKLVGQSLMDIGRTLTESACAWIWPPEKSLRYIREVEGMEVLEEALASGDGLVGITSHLGNWEVLNHFYCSYAKPIIFYRPPKLKAVDELLKKQRVQLGNRVAPSTPEGILSVIKEVKKGGCVGIPADPEPARTAGLFVPYLGTTALISKFVPQLLSRGKARGVFFHAVRLPDGSGYKVILEAAPADMYDKDLEVSVAAMSRELAKYVRAYPSQYMWSMKRFKNRPDGEKKWY | not soluble
7 | MGSDKIHHHHHHMEKLNFGIPEWAFEFHGHKCPYMPMGYRAGSYALKIAGLEKEKDHRTYLLSEMSPEDMNGCFNDGAQAATGCTYGKGLFSLLGYGKLALILYRPGRKAIRVHVRNSFMDELSTRASDFFRYRKQGYEPSEIPAGAIDPVLEWISSLEDEEIFEYREIDGFTFEPVKKNGAKVRCDVCGEYTYEADAKLLNGKPVCKPDYYGKK | not soluble
8 | MGSDKIHHHHHHMEKQSDSYYISAVQAGDTESFAPLVERYSDMLYALLCRLLQDEEDAADLLQDTFVKAFRHISRFDGRSSFSTWIYRIAYNEAIDHLRRHKAYVTDRVEELPDVPDEDLEPSGEDPELLQQALDSLPAADKALLLMFYSDDLSVRDIAEVTGMSESNVKVKLHRLRTKLYKMMRK | not soluble
9 | MGSDKIHHHHHHMEKQVATSIFESLSSGLRLDVFRLLVKKGPDGMVAGEIANALDVPPANLSFHLKALSQARLVTVEQEGRFQRYRADIPLMLDLIAYLTDECCTGSPAKCVEKVAASNCAKELLPPPVTHSNESDNMNILFLCTGNSCRSILAEAVFNHLAPTGWKAMSAGSQPTGTVHPRSLALLAREGIDTNGLHSKSWDNLPQVPDVVITVCSNAAGETCPAYLGAVLRAHWGVDDPAHATGTEAEIEAAFTAAYRILRRRIEAFLALPLVELARDRTRLKAELDRIGALSA | not soluble
10 | MGSDKIHHHHHHMEKSIQDTIHGVIKLEDWMVEIVDTPQFQRLRRINQLGFANLVYPGANHTRFEHSLGVMHVTRILQERMGFDDVVVAAALLHDVGHAPFSHGSERLLEKYASYNHETISKVVRGELKDVLKNLGFRISEIEAIVTGKRRSVVNGEIDADRMDYLVRDSHYTGVAYGVFDIYRLIDKIKFDGAVVIEQGGVKAAESLLISRFLMYPTVYFHHVCRIARKMYERAMERIIEAGFEAENLLEMDDVDAMMLLKEKERETYDRLNNRRLFKRAIYVSRRSLDFREVMRTSERRAEREVAEMAGVDERYVIVDIPPVEEMRESGVMVDTESGLKPLEEVSPLVKALKDAAVENWRLGVYTDRRFVDKVGKAAADYFGIEKVVQKSLDEIFPQ | not soluble
11 | MGSDKIHHHHHHMELEEIVDSERNIHKTIEVLGKGGQGIVYRCLDKDVAIKVVLRDGDFIKDKESLKQYEKSVLNLSFKPIESHFPMSIPLVTLKEKQGYVMKMAEGYEPLKTFLKKPSILENEEKDGIFRINNAIQELCKDNHYMTLSLSYYSQTQGLRSRLKILTHLAKLLFRLQSKGLVYGDLNLNNVFYKDNSAFLIDADNVRYESEKALCVIFTPNYGALEISQTSKNSDTTNYNTMLSDTFSFAIITYELLNMVHPFDGNKADDSVENFIELPWIEDRKDDSNRSCGLLPFFLTRDLKNLLA | not soluble
12 | MGSDKIHHHHHHMELIEILLKKLNKNAVVTEIAKDKDPFKVLISTIISARTKDEVTEEVSKKLFKEIKDVDDLLNIDEEKLADLIYPAGFYKNKAKNLKKLAKILKENYNGKVPDSLEELLKLPGVGRKTANLVITLAFNKDGICVDTHVHRICNRWEIVDTETPEETEFELRKKLPKKYWKVINNLLVVFGREICSSKSKCDKCFKEIKEKCPYYEKIKHFENILKKFNFRKVSKNKIPNEKGTYILKIRLKEGKKIKFGKTERFFKKGYYFYIGSAFGNSMNLKNRIERHLKDDKKMHWHIDYLLKYGKIEEIYITNERVECEVANEFIKKFDFVENFGCSDCKCKSHLFYLKP | not soluble
13 | MGSDKIHHHHHHMENKYLVSIIVPVHNTADYLHKCIESLRSQTLQQIEIILVDNLSVDGSSEICDEYAKIDKRIKVLHLSIAGLSIARNAGMRIASAPYIGFVDSDDYVEPAMFEKMLDAMVQSDAEIAYCNFLLEYEFKPNESPYRNSGDIVIRDPKNVLQDMMMEKVSCSACTKLYKSGFLTSLQFPEGKNYEDRLVMYEWVALCKKVVWVDSPFYHYVERQTSICHTMSPMNLYHYFLAEYARMRFMEKYSLFEEEDLFKIRTRLIGTCLTIFKEILLKVNLREFKEPVKDMRQKMKEIAALPEDTYELKYRRRVRKIAYHWHLYYLTHFLFKKGGDS | not soluble
14 | MGSDKIHHHHHHMENLGDRLEVVAELSLAPGNITLTPDGRLFLSLHQFYQPEMQVAELTQDGLIPFPPQSGNAIITFDTVLGIKSDGNGIVWMLDNGNQSKSVPKLVAWDTLNNQLSRVIYLPPPITLSNSFVNDLAVDLIHNFVYISDPAPDDKAALIRVDLQTGLAARVLQGYPGIAPEDIDLVIDGVPVQIGQPDGTVIRPHLGVNGIVLDAENEWLYLSPMHSTSMYRIKSADLSNLQLTDAELGSKIERYSEKPICDGISIDKDHNIYVGDLAHSAIGVITSADRAYKLLVTDEKLSWTDSFNFGSDGYLYFDCNQLHHSAPLNAGENISAPPYYIFRLKPLAAGIVGR | not soluble
15 | MGSDKIHHHHHHMENQDYTVRLTVQASPQEVFKQINRVTAWWTKNLQGDSEKLNDVFTVNFPGMHVSTQKLIECIPDKKVTWMVTDSHLTFIQRKTEWTDTTIQFDISRNVKHTEVLFTHKGLNPAIECYGDCAKGWDYFIKGSLFKLLTEGTGTPE | not soluble
16 | MGSDKIHHHHHHMENQEKPLSVDEEYDLWKSNVPLMYDFVSETRLTWPSLTVQWLPTPVQELDGGFIKQELIIGTHTSGEEENYLKFAEINLPKEILSNEDPQEEAGEEYQSSLPAPRSNIRITAKYEHEEEITRARYMPQDPNIVATINGQGTVFLYSRSEGLQSTLKFHKDNGYALSFSTLVKGRLLSGSDDHTVALWEVGSGGDPTKPVRTWNDLHSDIINDNKWHNFNKDLFGTVSEDSLLKINDVRANNTTIDTVKCPQPFNTLAFSHHSSNLLAAAGMDSYVYLYDLRNMKEPLHHMSGHEDAVNNLEFSTHVDGVVVSSGSDNRLMMWDLKQIGAEQTPDDAEDGVPELIMVHAGHRSSVNDFDLNPQIPWLVASAEEENILQVWKCSHSLPIVGGPPKVNKDIIS | not soluble
17 | MGSDKIHHHHHHMENYTHWFYLESYTFLFYSKNQYVIYNTLNSTYIDCSLYGKTINTVLSILHNTNKTYCVGIYEYQLRDSQFTEFIKKIRNTFSGDIIKNIRGIPPFISKPILRILHHPNNPKTKEYNLLGENALFHLHEVTFYLENQGFDLNPMYKDCYKQFLYPTYTEKQKLSHAKYLEIIEQLSICQIDKINIIPATIEKKELFSYLLSLSRQYSIKTQIILPYKKYNKEDLKQLLTNPQFSIMIMVHLPVDYEELNSYINLFNEYNITWSLIASNKNDVIFLSKNNLGKFTNVDYIPWYTGDNMDFFKEYIYNDFKDIIEQKNTKQHIFRKQILNDNLFGKLTIFPTGEVYSNVNFPTIGNIQDQKLSEIVYSEIENYFKPWFFTRDYVSCKNCVNKYLCPSISNYEIVANEYNMCYLNQ | not soluble
18 | MGSDKIHHHHHHMEPFSPLNWFRRSSSQASCRTALSSQPSLEAAVNEVAAALAGGSSADLALVFASTHYASDLQRLLPLLQRRLKATHWLGCAGGGVIGTTAKGNASELEKEPALSITMLQLPGAILKPFYLETQSLPDLDGPAQHWQEWVGADPFNARSMLLLVDPSSRSINDLISGLDYAYPTTTKLGGIAGPHNAPHGSLFFDDRVVMGAVGCSFGGDWNLEVVVAQGCKPIGPVFAIEQVQKNILLELSHENQRDSPMACLQRVLDDLSEEEREMVRHSLFLGIERRDLVLAGTGAPQPQGAFLVRNLIGVDPKNGAVAVAEQIRAGQNVQFQLREAEASRQESELLLGAARERNTSPPLFGLLMACLGRGHGLYGVPNGDVHIARKLMAELPIAGVFCNGEIGPAGGVGATHIHGYTACWGLLRHDPSSSEPAKSV | not soluble
